Measured values published in US20250011363A1, “OPTIMIZED SHORTENED PEPTIDE THAT BINDS TO ACETYLCHOLINE RECEPTOR, AND USE THEREOF” (SKINMED CO., LTD., priority 2021, published 2025).

B1: 6mer-1-49 (peptide)
peptide: RRWQTR
B2: 6mer-1-42 (peptide)
peptide: KKRIQR
B3: 6mer-1-13 (peptide)
peptide: KRQIQR
B4: 6mer-1-48 (peptide)
peptide: RRWVRR
B5: 6mer-1-7 (peptide)
peptide: KRQYSK
B6: 6mer-1-15 (peptide)
peptide: KRQICK
B7: 6mer-1-14 (peptide)
peptide: RKRFLK
B8: 6mer-1-37 (peptide)
peptide: KKWVLR
B9: 6mer-1-41 (peptide)
peptide: RKGITK
B10: 6mer-1-24 (peptide)
peptide: RKVIRK
B11: 6mer-1-39 (peptide)
peptide: RKVYQK
B12: 6mer-1-3 (peptide)
peptide: RKRRSR
B13: 6mer-1-27 (peptide)
peptide: KRSFTK
B14: 6mer-1-2 (peptide)
peptide: RKQILR
B15: 6mer-1-28 (peptide)
peptide: RRWISK
B16: 6mer-1-10 (peptide)
peptide: KRWRLK
B17: 6mer-1-52 (peptide)
peptide: RRRFLR
B18: 6mer-1-47 (peptide)
peptide: KRRLLK
B19: 6mer-1-18 (peptide)
peptide: KKQFTR
B20: 6mer-1-19 (peptide)
peptide: KRSFYR
B21: 6mer-1-36 (peptide)
peptide: RKWQQK
B22: 6mer-1-33 (peptide)
peptide: KKSYCR
B23: 6mer-1-32 (peptide)
peptide: RKGQCR
B24: 6mer-1-9 (peptide)
peptide: RKSFCK
B25: 6mer-1-12 (peptide)
peptide: KKQICK
B26: 6mer-1-1 (peptide)
peptide: KKVISK
B27: 6mer-1-50 (peptide)
peptide: KKVRTR
B28: 6mer-1-51 (peptide)
peptide: RRVLYK
B29: 6mer-1-30 (peptide)
peptide: RRQVRR
B30: 6mer-1-38 (peptide)
peptide: RRQQTK
B31: 6mer-1-6 (peptide)
peptide: RKSRCK
B32: 6mer-1-21 (peptide)
peptide: RKWYLK
B33: 6mer-1-46 (peptide)
peptide: KRLYQR
B34: 6mer-1-44 (peptide)
peptide: KRQYCK
B35: 6mer-1-23 (peptide)
peptide: KRSVSR
B36: 6mer-1-26 (peptide)
peptide: KKRVLR
B37: 6mer-1-8 (peptide)
peptide: RKRRRK
B38: 6mer-1-20 (peptide)
peptide: KKSRYK
B39: 6mer-1-4 (peptide)
peptide: RKSFYK
B40: 6mer-1-53 (peptide)
peptide: KRVIQR
B41: 6mer-1-35 (peptide)
peptide: RRGRQR
B42: 6mer-1-16 (peptide)
peptide: KKQYCR
B43: 6mer-1-29 (peptide)
peptide: KRLISR
B44: 6mer-1-5 (peptide)
peptide: KRQIRK
B45: 6mer-1-25 (peptide)
peptide: KKLIRR
B46: 6mer-1-22 (peptide)
peptide: RKRLCK
B47: 6mer-1-31 (peptide)
peptide: KRLYCR
B48: 6mer-1-34 (peptide)
peptide: RKWLYK
B49: 6mer-1-40 (peptide)
peptide: KRSQYK
B50: 6mer-1-17 (peptide)
peptide: KRVQCR
B51: 6mer-1-11 (peptide)
peptide: KRQFTK
B52: 6mer-1-45 (peptide)
peptide: RKGLTK
B53: 6mer-2-63 (peptide)
peptide: KSFRKR
B54: 6mer-2-64 (peptide)
peptide: KSVSKK
B55: 6mer-2-46 (peptide)
peptide: KLYLKR
B56: 6mer-2-50 (peptide)
peptide: RSQSKR
B57: 6mer-2-59 (peptide)
peptide: RVLSRK
B58: 6mer-2-56 (peptide)
peptide: RSQLRR
B59: 6mer-2-60 (peptide)
peptide: RRLSKK
B60: 6mer-2-1200 (peptide)
peptide: RHHNRR
B61: 6mer-2-1199 (peptide)
peptide: RCTNKR
B62: 6mer-2-48 (peptide)
peptide: RRFRKK
B63: 6mer-2-57 (peptide)
peptide: KQRCRR
B64: 6mer-2-53 (peptide)
peptide: KSLSRR
B65: 6mer-2-52 (peptide)
peptide: KRQRKK
B66: 6mer-2-49 (peptide)
peptide: RLRCRK
B67: 6mer-2-55 (peptide)
peptide: RLFYKK
B68: 6mer-2-65 (peptide)
peptide: KGVCKR
B69: 6mer-2-47 (peptide)
peptide: KLQSRR
B70: 6mer-2-61 (peptide)
peptide: RGFQRK
B71: 6mer-2-66 (peptide)
peptide: RVIRRR
B72: 6mer-2-62 (peptide)
peptide: RLVTKR
B73: 6mer-2-45 (peptide)
peptide: RSLTKK
B74: 6mer-2-51 (peptide)
peptide: KQFLKK
B75: 6mer-2-58 (peptide)
peptide: KRLQRK
B76: 6mer-2-54 (peptide)
peptide: KGRRRR
B77: 6mer-2-67 (peptide)
peptide: KLFCKK
B78: 6mer-2-68 (peptide)
peptide: KGRRRK

molecular target: acetylcholine receptor; assay: SPR, peptide at 10 uM on immobilised AchR

Binder	Binding affinity (RU)
B1	149
B2	139
B3	147
B4	124
B5	126
B6	123
B7	145
B8	121
B9	122
B10	142
B11	139
B12	154
B13	142
B14	142
B15	125
B16	139
B17	131
B18	149
B19	145
B20	135
B21	124
B22	154
B23	121
B24	154
B25	128
B26	122

Binder	Binding affinity (RU)
B27	139
B28	127
B29	154
B30	126
B31	153
B32	137
B33	142
B34	148
B35	153
B36	123
B37	125
B38	147
B39	139
B40	123
B41	136
B42	136
B43	124
B44	135
B45	135
B46	126
B47	121
B48	135
B49	121
B50	135
B51	139
B52	145

molecular target: acetylcholine receptor; assay: SPR, AchR immobilized on chip, peptide at 10 uM

Binder	Binding affinity [RU]
B53	121
B54	136
B55	153
B56	125
B57	123
B58	149
B59	148
B60	30
B61	27
B62	153
B63	139
B64	125
B65	136
B66	154
B67	125
B68	148
B69	148
B70	148
B71	123
B72	147
B73	121
B74	139
B75	122
B76	124
B77	124
B78	142
